Series [1] can be described thus: Dosimetry in non-humanised NSG mice. As to conditions: non-humanised NSG mice, monitored 2 weeks. It counts as in vivo. As for the experimental part: For dosimetry in non-humanised NSG mice, adult NSG mice were injected intravenously via the tail vein with unconjugated Mab or ADC up to 5 mg/kg. Mice regularly monitored over a period of 2 weeks for any signs of morbidity. Mice were culled if rapid weight loss (>15%) occurred over a period of 2 days.

The next series relates to Nalm6 (CD45-). Nature of the series: Cell viability assay 72 h (PrestoBlue), Nalm6. It counts as cell-based, human. As to conditions: drug-linker B1. As to the method:
OCIM1, Jurkat and Nalm6 cells were seeded at 0.5×10^5/mL were cultured for 72 hours in presence of Mab or ADC or medium (in triplicate wells) in wells of flat bottom 96-well plates. 293T cells were seeded at 9.3×10^3 cells per well in flat bottom 96-well plates and allowed to adhere the plate for up to 24 hours. 293T cells were subsequently cultured with Mab or ADC or medium (in triplicate wells) for 72 hours. PrestoBlue® Cell viability Reagent (Thermo Fisher Scientific) was added to each and incubated for up to 1.5 hours. Fluorescence intensity from each well was detected using a FLUOstar OPTIMA microplate reader (BMG Labtech). Data points are mean±s.d. for representative experiments.

The conditions of series [2]: 1 mg/kg, NSG mice; for T %: serum ELISA. As for the experimental part:
Adult (non-humanized) NSG mice were injected with 1 mg/kg ADC. Three mice were used for each ADC. Samples were taken from mice at between 3 h and 168 h after injection. Serum samples were analyzed by ELISA using recombinant human CD45 (Bio-Techne). Goat anti-rat IgG (H+L) (cross absorbed) and sulfoTAG Streptavidin was used to detect the total amounts of the YTH antibodies. Anti-drug antibody was used to detect the level of conjugated antibody.
(ELISA stands for enzyme-linked immunosorbent assay.)

Series [3] has as its system fLuc+ OCIM1 cells. The experiment in a line: AML model in NSG mice, treatment the day after cell injection. Format: in vivo. As to conditions: for tumor (bioluminescence) signal: 1 mg/kg or 5 mg/kg i.v. the day after OCIM1 injection; for mice developing tumor / tumor signal: 1 mg/kg or 5 mg/kg i.v., cohorts of 5 mice. As to the method:
(§1) NSG mice were transplanted with 7.5×10^6 luciferase expressing fLuc+ OCIM1 cells i.v. On the following day, unconjugated rat IgG2b antibodies or ADCs were injected i.v. via a tail vein at a dose of 1 mg/kg or 5 mg/kg. Mice were regularly monitored for signs of morbidity for the duration of the experiment. For imaging, mice were injected intraperitoneally with 200 μl of 15 mg/mL D-luciferin (Regis Technologies) in PBS. Mice were subsequently anesthetized with 4% isoflurane and maintained at 2% isoflurane. Ten minutes after injection of D-luciferin, mice were placed with anterior side up inside a IVIS Lumina III (PerkinElmer). A sub-saturating image was captured using the auto-exposure setting in the Living Image software (v4.5). Quantification and preparation of images was also carried out using the same software.

In series [4] the test system is human CD45+ cells. Nature of the series: Engraftment of a second transplant of GFP+ autologous CD34+ cells in humanised NSG mice after conditioning. It counts as in vivo. As to conditions: 1 mg/kg (combination 0.5 mg/kg each); 9 weeks after GFP+ cell transplant. As to the method: Adult female NSG mice were sublethally irradiated with 2.5 Gy on the day before transplantation (day −1). Cryopreserved purified CD34+ cells from mobilized peripheral blood from a normal donor were thawed and 0.5×10^6 cells in PBS were injected intravenously into the tail vein of mice (day 0). Human engraftment (human CD45+ cells) in the blood of mice was assessed at week 8. Mice were assigned to treatment cohorts so that the median human CD45+ engraftment in the blood for each cohort was as similar as possible. Mice were injected with 1 mg/kg Mab or ADC or a combination of YTH MAbs (0.5 mg/kg each) or YTH ADCs (0.5 mg/kg each) intravenously via the tail vein. Mice were subsequently transplanted with lentivirally transduced green fluorescent protein (GFP) autologous CD34+ cells (Week 10). A separate cohort of sublethally irradiated (non-humanized) NSG were injected with the same batch of GFP transduced cells served as a positive control for GFP+ human cell engraftment. Nine weeks after GFP+ cell transplant, mice were culled and blood, spleen and bone marrow taken for analysis.

Series [5] has as its system human CD45+ cells. The experiment in a line: Allogeneic stem cell transplant model in humanized NSG mice (YTH24.5-B1 conditioning). It counts as in vivo. As to conditions: 1 mg/kg. As to the method: Adult NSG mice (Charles River Laboratories) were sublethally irradiated with 2.5 Gy in a ^137Cs irradiator. On the following day, mice were injected with 0.5×10^6 freshly thawed cryopreserved human CD34+ cells from a health donor were injected via the tail vein in 150 μL PBS using a 29 gauge MicroFine Plus insulin syringe (BD). Engraftment of human cells in the blood was assessed periodically from 6 weeks after transplantation. At 10 weeks post-transplant, humanized NSG mice were assigned into cohorts with similar median human CD45+ cell engraftment in the blood, as determined by flow cytometry. Mice were injected with PBS or 1 mg/kg YTH24.5-B1. Sixteen 16 days after treatment, mice were transplanted with 0.5×10^6 GFP+CD34+ cells from another healthy donor. Irradiated NSG […] were also transplanted with the GFP+CD34+ from the allogeneic healthy donor as a control for engraftment of the GFP+CD34+ cells. 8 weeks after transplantation of GFP+ cells, mice were culled and blood, spleen and bone marrow taken for analysis by flow cytometry.

The test system of series [6] is fLuc+ OCIM1 cells. The experiment in a line: Established AML model in NSG mice, treatment 10 days post-injection. It counts as in vivo. As to conditions: cohorts of 5 mice, all tumor-bearing. As to the method: as §1, with “7.5×10^6” for “7.5×10^6 luciferase expressing”, “At 10 days post-injection of AML cells,” for “On the following day,”, “antibody” for “rat IgG2b antibodies”

B1: YTH54.12-B1: rat IgG2b anti-CD45 antibody YTH54.12 conjugated to cleavable PBD drug-linker B1 (drawing 43) (conjugate)
heavy: EVQLVESGGGLVQPGGSMKLSCAASGFTFSDYYMAWVRQAPKKGLEWVASMSFAGSSTYYGDSVKGRFTISRDNAKTTLYLQMNSLRSEDTATYYCARMYTTDYYLYWYFDFWGPGTMVTVSSAQTTAPSVYPLAPGCGDTTSSTVTLGCLVKGYFPEPVTVTWNSGALSSDVHTFPAVLQSGLYTLTSSVTSSTWPSQTVTCNVAHPASSTKVDKKVERRNGGIGHKCPTCPTCHKCPVPELLGGPSVFIFPPKPKDILLISQNAKVTCVVVDVSEEEPDVQFSWFVNNVEVHTAQTQPREEQYNSTFRVVSALPIQHQDWMSGKEFKCKVNNKALPSPIEKTISKPKGLVRKPQVYVMGPPTEQLTEQTVSLTCLTSGFLPNDIGVEWTSNGHIEKNYKNTEPVMDSDGSFFMYSKLNVERSRWDSRAPFVCSVVHEGLHNHHVEKSISRPPGK
light: DVQMTQSPSYLAASPGESVSISCKASKSISNYLAWYQQKPGEANKILIYSGSTLQSGTPSRFSGSGSGTDFSLTIRNLEPEDFAVYYCQQYDEKPLTFGSGTKLEIKRADAAPTVSIFPPSMEQLTSGGATVVCFVNNFYPRDISVKWKIDGSEQRDGVLDSVTDQDSKDSTYSMSSTLSLTKVEYERHNLYTCEVVHKTSSSPVVKSFNRNEC
As to B1, the “Comment (survival / culling)” value in series [1] (0.5 mg/kg i.v.) is given as “All alive at day 14”. The “Comment (survival / culling)” value in series [1] (5 mg/kg i.v.) is given as “All alive at day 14”. The response in the series with Nalm6 (CD45-) was half-maximal at 4.23 nM (EC50). In series [2], the “AUC relative to YTH24.5-PBD” value was roughly 1.5 times, the “time after injection by which below the lower limit of detection” value was roughly 4 days and the T % is 1.53 days. In the series on fLuc+ OCIM1 cells [3], the “tumor (bioluminescence) signal” value is listed as “increasing tumor signal from day 18 onwards” and the “mice developing tumor / tumor signal” value is recorded as 1 out of 5. Further, the “GFP+CD34+ out of total human CD34+ cells in the bone marrow” value in the series with human CD45+ cells [4] is reported as roughly 80%.

B2: YTH24.5-B1: rat IgG2b anti-CD45 antibody YTH24.5 conjugated to cleavable PBD drug-linker B1 (drawing 43) (conjugate)
heavy: QVNLLQSGAALVKPGASVKLSCKASSYTFTDYYIHWVKQSHGKTLEWIGYINPKSGFTNYNEKFRRKATLTVDKSTNTAYMDISRLTSEDSATYYCTRRTGVIPMDAWGQGASVTVSSAQTTAPSVYPLAPGCGDTTSSTVTLGCLVKGYFPEPVTVTWNSGALSSDVHTFPAVLQSGLYTLTSSVTSSTWPSQTVTCNVAHPASSTKVDKKVERRNGGIGHKCPTCPTCHKCPVPELLGGPSVFIFPPKPKDILLISQNAKVTCVVVDVSEEEPDVQFSWFVNNVEVHTAQTQPREEQYNSTFRVVSALPIQHQDWMSGKEFKCKVNNKALPSPIEKTISKPKGLVRKPQVYVMGPPTEQLTEQTVSLTCLTSGFLPNDIGVEWTSNGHIEKNYKNTEPVMDSDGSFFMYSKLNVERSRWDSRAPFVCSVVHEGLHNHHVEKSISRPPGK
light: DVVMTQTPVSLSVSLGGQVSISCRSSQSFVSSDGNTYLNWYLQKPGQSPQLLIYKVSNRLSGVPDRFSGSGSGTDFTLKISRVEHDDLGVYYCGQASKIPLTFGSGTKLEIKRADAAPTVSIFPPSMEQLTSGGATVVCFVNNFYPRDISVKWKIDGSEQRDGVLDSVTDQDSKDSTYSMSSTLSLTKVEYERHNLYTCEVVHKTSSSPVVKSFNRNEC
As to B2, the “Comment (survival / culling)” value in series [1] (0.5 mg/kg i.v.) is on record as “All alive at day 14”. In addition, the “Comment (survival / culling)” value in series [1] (5 mg/kg i.v.) is “All alive at day 14”. Moreover, the EC50 (usually the concentration at which the effect is half-maximal) with Nalm6 (CD45-) came out at 2.83 nM. In series [2], the “time after injection by which below the lower limit of detection” value is roughly 4 days and the T % is listed as 1.49 days. Moreover, in the series on human CD45+ cells [5] (8 weeks after allogeneic GFP+ cells, PBS 37.5%), the “mean % hCD45 engraftment in the bone marrow” value is reported as 9.08%. Further, the “percentage GFP+hCD45+ cells of all human CD45+ cells in bone marrow (mean)” value in the series on human CD45+ cells [5] (PBS 2.1%, irradiation control 41.3%) is 29.0%. The “GFP+hCD34+ cells within the human CD34+ compartment in the bone marrow (mean)” value in the series with human CD45+ cells [5] (PBS 3.7%) came to 56.6%. Further, in the series with fLuc+ OCIM1 cells [3], the “tumor (bioluminescence) signal” value is recorded as “Low/absent tumor signal” and the “mice developing tumor / tumor signal” value is 1 out of 5. Also, in the series on fLuc+ OCIM1 cells [6], the “mice alive at 60 days” value is 4/5. In addition, the “GFP+CD34+ out of total human CD34+ cells in the bone marrow” value in the series with human CD45+ cells [4] is reported as roughly 80%.

The values above are taken from patent US20220096654A1, “PYRROLOBENZODIAZEPINE-ANTIBODY CONJUGATES AND USES THEREOF” (ADC THERAPEUTICS SA, priority 2020, published 2022).
